The target in this experiment is T1, Ku heterodimer (Ku70/Ku80), full length, recombinant human (human, UniProt P12956 1-609; P13010 1-732).
T1 construct: Ku70, human; Ku80, human; also called recombinant Ku; full-length Ku heterodimer; source: insect cells, baculovirus expression system, purified (immobilized metal-chelate chromatography, gel filtration)
The experiment is described as follows: pull-down; 50 nM Strep-tagged WRN protein immobilised on Streptavidin Mag Sepharose beads, 50 nM recombinant untagged Ku, 1 h at 4 °C; 20 mM Hepes pH 7.5, 150 mM NaCl, 5% glycerol, 0.5 mM TCEP, 0.05% IGEPAL-CA640; SDS–PAGE, Coomassie/Instant Blue. The conditions noted are these: both partners purified.

T1 sequence (P12956 whole entry, chain 1 of 2): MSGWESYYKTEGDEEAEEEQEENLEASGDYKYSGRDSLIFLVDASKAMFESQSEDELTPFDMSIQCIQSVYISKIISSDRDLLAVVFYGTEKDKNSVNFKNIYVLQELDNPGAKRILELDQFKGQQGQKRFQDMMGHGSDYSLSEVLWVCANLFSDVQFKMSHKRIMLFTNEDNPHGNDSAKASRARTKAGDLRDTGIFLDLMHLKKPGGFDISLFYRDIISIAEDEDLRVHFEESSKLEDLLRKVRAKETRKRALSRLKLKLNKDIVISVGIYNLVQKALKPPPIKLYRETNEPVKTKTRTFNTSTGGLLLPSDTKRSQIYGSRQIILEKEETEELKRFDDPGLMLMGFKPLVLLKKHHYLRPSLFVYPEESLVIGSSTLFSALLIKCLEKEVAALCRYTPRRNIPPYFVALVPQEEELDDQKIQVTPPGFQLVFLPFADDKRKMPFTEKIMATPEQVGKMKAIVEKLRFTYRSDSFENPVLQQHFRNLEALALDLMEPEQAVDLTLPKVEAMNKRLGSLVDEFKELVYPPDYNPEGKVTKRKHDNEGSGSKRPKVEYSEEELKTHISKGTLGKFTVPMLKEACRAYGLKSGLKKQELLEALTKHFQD
T1 sequence (P13010 whole entry, chain 2 of 2): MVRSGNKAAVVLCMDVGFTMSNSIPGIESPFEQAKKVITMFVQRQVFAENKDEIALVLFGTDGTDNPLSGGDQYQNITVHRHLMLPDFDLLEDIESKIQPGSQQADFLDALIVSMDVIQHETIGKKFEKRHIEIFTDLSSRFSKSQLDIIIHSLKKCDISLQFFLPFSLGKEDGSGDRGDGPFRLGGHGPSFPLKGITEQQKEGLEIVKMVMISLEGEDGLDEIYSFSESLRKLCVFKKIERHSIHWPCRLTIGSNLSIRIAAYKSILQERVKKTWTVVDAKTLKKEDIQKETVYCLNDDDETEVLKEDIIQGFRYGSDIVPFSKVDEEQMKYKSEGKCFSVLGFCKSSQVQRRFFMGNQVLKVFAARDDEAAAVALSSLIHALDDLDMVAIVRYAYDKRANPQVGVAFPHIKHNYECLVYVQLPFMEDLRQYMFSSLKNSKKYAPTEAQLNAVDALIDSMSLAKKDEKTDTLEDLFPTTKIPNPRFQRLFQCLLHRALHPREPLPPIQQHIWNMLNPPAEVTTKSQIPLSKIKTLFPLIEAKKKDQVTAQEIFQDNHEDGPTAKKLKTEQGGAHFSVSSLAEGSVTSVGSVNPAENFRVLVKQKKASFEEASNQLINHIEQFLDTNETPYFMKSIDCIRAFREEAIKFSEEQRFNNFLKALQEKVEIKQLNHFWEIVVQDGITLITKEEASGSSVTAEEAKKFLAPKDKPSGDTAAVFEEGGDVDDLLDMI

B1: Strep-tagged WRN^W18G (natural protein)
chain: not shown
notes: Werner syndrome protein (WRN), human, full length, W18G; source: insect cells, baculovirus expression system, purified (Strep-Tactin Superflow Plus cartridge, Superose 6 gel filtration)
For B1, the binding result is “binds”.

Source of the values: article PMC4831024 (Nature Communications, 2016).
